Data on ten molecules can be found in patent publication US20230287125A1 (LEPU BIOPHARMA, published 2023).

Numbering of substitutions follows the chain as printed. In names and notes the source's numbering stands.

B1: Hu47C6A3-2 (antibody, V domains shown)
VH: QVQLQESGPGLVKPSETLSLTCTVSGYSITSDYAWNWIRQPPGKGLEWIGYIIYSGSTSYNPSLKSRVTISRDTSKNQFSLKLSSVTAADTAVYYCARSTMIATNWFAYWGQGTLVTVSS
VL: DIQMTQSPSSLSASVGDRVTITCKASQDVSLAVAWYQQKPGKAPKLLIYWASTRHTGVPSRFSGSGSGTDFTLTISSLQPEDFATYYCQQHYITPWTFGGGTKVEIK
notes: humanized
B2: Hu47C6A3-1 (antibody, V domains shown)
VH: B1 VH with R72V
VL: B1 VL
notes: humanized
B3: Hu89C10H8-7 (antibody, V domains shown)
VH: EVQLVESGGGLVKPGGSLRLSCAASGFTFSNYWMTWIRQAPGKGLEWVASITNTGSSTFYPDSVKGRFTISRDNAKNSLYLQMNSLRAEDTAVYYCTRDTTIAPFDYWGQGTMVTVSS
VL: DIQMTQSPSSLSASVGDRVTITCKASQNLNEYLNWYQQKPGKAPKRLIYKTNTLQAGIPSRFSGSGSGTDYTLTISSLQPEDFATYYCSQYNSGNTFGQGTKLEIK
notes: humanized
B4: Hu89C10H8-4 (antibody, V domains shown)
VH: B3 VH with N77S
VL: B3 VL with I58V
notes: humanized
B5: Hu89C10H8-7, Human IgG1 (N297A)-Fc (antibody, V domains shown)
VH: B3 VH
VL: B3 VL
B6: 47C6A3, Human IgG1 (N297A)-Fc (antibody, V domains shown)
VH: DVQLQESGPGLVKPSQSLSLTCTVTGYSITSDYAWNWIRQFPGNKLEWMGYIIYSGSTSYNPSLKSRISITRDTSKNQFFLQLNSVTTEDTATYYCARSTMIATNWFAYWGQGTLVTVSA
VL: DIVMTQSHKFMSTSVVDRVSITCKASQDVSLAVAWYQQKPGQSPKLLIYWASTRHTGVPDRFTGSGSGTDFALTISSVQAEDLALYYCQQHYITPWTFGGGTKLEIK
B7: Hu67F3G7-22, Human IgG1 (N297A)-Fc (antibody, V domains shown)
VH: EVQLVQSGAEVKKPGASVKVSCKASGYTFTDFWVSWVRQAPGQGLEWMGEIYPNSGVSRYNEKFKGRVTMTVDKSISTAYMELSRLRSDDTAVYYCTKYFGYTYWFGYWGQGTLVTVSS
VL: DIQMTQSPSSLSASVGDRVTITCRASKSVSTYMHWYQQKPGKQPKLLIYSASHLESGVPSRFSGSGSGTDFTLTISSLQPEDFATYYCQQSNELPVTFGGGTKVEIK
B8: Hu67F3G7-3 (antibody, V domains shown)
VH: B7 VH with T28I, M48I
VL: B7 VL with Q43A
notes: humanized
B9: Hu67F3G7-2 (antibody, V domains shown)
VH: B7 VH
VL: B7 VL with Q43A
notes: humanized
B10: Hu67F3G7-20 (antibody, V domains shown)
VH: B7 VH with T28I, Q43K, M48I
VL: DTVLTQSPSLSASVGDRVTITCRASKSVSTYMHWYQQKPGKQPKLLIYSASHLESGVPSRFSGSGSGTDFTLTISSLQPEDFATYYCQQSNELPVTFGGGTKVEIK
notes: humanized

The target in one assay is T1, human PD-L1 over-expressed on CHOK1 cells (human, UniProt Q9NZQ7 19-290).
T1 construct: whole, on cells; also called PDL1-CHOK1 cells
T1 sequence (Q9NZQ7 19-290): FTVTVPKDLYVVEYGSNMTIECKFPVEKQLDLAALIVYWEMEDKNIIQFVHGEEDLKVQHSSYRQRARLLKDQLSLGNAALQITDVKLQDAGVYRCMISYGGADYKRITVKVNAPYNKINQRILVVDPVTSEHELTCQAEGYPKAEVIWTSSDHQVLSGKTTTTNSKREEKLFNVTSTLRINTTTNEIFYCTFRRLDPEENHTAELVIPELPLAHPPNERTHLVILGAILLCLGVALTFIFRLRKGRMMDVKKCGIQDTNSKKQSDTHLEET
The assay can be described thus: flow cytometry (MFI) on PDL1-CHOK1 cells; upper left panel. The protocol:
(§1) To evaluate the antigen binding property, the humanized antibodies were analyzed for their binding to PD-L1 overexpressed on mammalian cells by FACS. Briefly, PDL1-CHOK1 cells were firstly incubated with 3-fold serious diluted humanized antibodies starting at 15 μg/ml at 4° C. for 40 mins. After washed by PBS, the Alexa Fluor® 647 AffiniPure Goat Anti-Human IgG (H+L) antibody was added to each well and incubated at 4° C. for 30 mins. The MFI of Alexa Fluor® 647 was evaluated by FACSCanto.
(In general: A flow cytometer gives signals particle by particle.)
As usually defined, the EC50 is the midpoint of the concentration-response curve. Low readings indicate an effect from little substance, high ones a need for much substance. Molecule B1 registered an EC50 of 175 pM.

With B2, a half-maximal effect (EC50) was put at 291 pM.

Another assay deals with T1, human PD-L1 over-expressed on CHOK1 …. Put plainly: flow cytometry (MFI) on PDL1-CHOK1 cells; lower right panel. The protocol: as §1
Consider B3, for which the EC50 worked out at 100 pM.

For B4, the midpoint of the response, the EC50, lay at 127 pM.

A further assay deals with T2, human PD-L1-Fc protein (human, UniProt Q9NZQ7 19-238).
T2 construct: coating antigen of the ELISAs; also called rhPD-L1-Fc; not shown: Fc
T2 sequence (Q9NZQ7 19-238 limits assumed): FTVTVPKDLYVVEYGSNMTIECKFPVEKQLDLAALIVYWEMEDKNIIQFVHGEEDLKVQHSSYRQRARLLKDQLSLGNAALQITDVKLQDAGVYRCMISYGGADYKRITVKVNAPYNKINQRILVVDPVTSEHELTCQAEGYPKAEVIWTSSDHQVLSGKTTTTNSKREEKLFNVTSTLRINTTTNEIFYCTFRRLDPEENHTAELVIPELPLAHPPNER
The assay can be described thus: ELISA, antibody titrated on coated human PD-L1-Fc, OD 450nm; upper right panel. The procedure: (§2) To evaluate antigen binding activity, the humanized antibodies were subjected to ELISA test. Briefly, microtiter plates were coated with human PD-L1-Fc protein at 0.5 μg/ml in PBS, 100 μl/well at 4° C. overnight, then blocked with 200 μl/well of 1% BSA. Three-fold dilutions of humanized antibodies starting from 10 μg/ml were added to each well and incubated for 1 hour at 37° C. The plates were washed with PBS/Tween and then incubated with mouse-anti-human IgG Fab antibody conjugated with Horse Radish Peroxidase (HRP) for 1 hour at 37° C. After washing, the plates were developed with TMB substrate and analyzed by spectrophotometer at OD 450 nm.
In general terms: ELISA stands for enzyme-linked immunosorbent assay.
As for B3, the response was half-maximal at 0.00705 µg/mL (EC50).

As to B1, the half-maximal effective concentration (EC50) worked out at 0.0117 µg/mL.

In the next assay the target is PD-L1 on PD-L1 target cells (Homo sapiens (Human), UniProt Q9NZQ7 19-290). Put plainly: cell-based or functional assay.
PD-L1 on PD-L1 target cells, sequence (Q9NZQ7 19-290 limits assumed): as the sequence (Q9NZQ7 19-290) above
In the case of B5, the “EC50, NFAT-RE-mediated luminescence, PD1 effector cells co-cultured with PD-L1 target cells” value (“EC50, NFAT-RE-mediated luminescence” for short) was 214 pM.

Turning to B6, the “EC50, NFAT-RE-mediated luminescence” value was 150 pM.

For B7, the “EC50, NFAT-RE-mediated luminescence” value was 103 pM.

Another assay deals with T1, human PD-L1 over-expressed on CHOK1 …. The assay can be described thus: flow cytometry (MFI) on PDL1-CHOK1 cells; upper right panel. The protocol:
as §1
As for B8, a half-maximal effect (EC50) was put at 167 pM.

With B9, the concentration giving a half-maximal response (EC50) was determined as 108 pM.

For another assay, the target named is T3, human PD-L1-his tag protein (human, UniProt Q9NZQ7 19-238).
T3 construct: also called human PD-L1-His protein; recombinant PD-L1 protein; not shown: his tag
T3 sequence (Q9NZQ7 19-238 limits assumed): as the sequence (Q9NZQ7 19-238 limits assumed) above
Put plainly: SPR (Biacore T200), mAb captured on Protein A chip, PD-L1-his injected. The protocol: The binding of the humanized antibodies to recombinant PD-L1 protein (human PD-L1-his tag) was tested by Biacore using a capture method. […] A serial dilution of human PD-L1-his tag protein was injected over captured antibody for 2 mins at a flow rate of 30 μl/min. The antigen was allowed to dissociate for 1500 s. All the experiment were carried out on a Biacore T200.
In general terms: SPR reads the build-up and loss of mass on a sensor chip optically.
Broadly, the Kd is the concentration at which binding is half-saturated. A low value points to a tighter complex. As usually defined, the koff is a measure of how fast the partners let go of each other. Usually kon stands for the second-order rate constant of association. Consider B3, for which the Kd stood at 93.5 pM, the off-rate (koff) worked out at 5.31e-05 s⁻¹ and the kon was determined as 568000 M⁻¹ s⁻¹.

The molecule B4 came in with a Kd of 96.2 pM, a koff of 5.41e-05 s⁻¹ and a kon of 562000 M⁻¹ s⁻¹.

B8: binding was put at a Kd of 37.1 pM, the koff came out at 7.74e-05 s⁻¹ and the kon came out at 2.09e+06 M⁻¹ s⁻¹.

B9 yielded an equilibrium dissociation constant (Kd) of 36.7 pM, a dissociation rate constant (koff) of 7.03e-05 s⁻¹ and a kon of 1.92e+06 M⁻¹ s⁻¹.

B1 had a Kd of 367 pM, a dissociation rate constant (koff) of 0.0009 s⁻¹ and a kon of 2.45e+06 M⁻¹ s⁻¹.

Regarding B2, the equilibrium dissociation constant (Kd) is 480 pM, the off-rate constant (koff) turned out to be 0.000593 s⁻¹ and the association rate constant (kon) was found to be 1.24e+06 M⁻¹ s⁻¹.

The next assay has as its target T2, human PD-L1-Fc protein. Put plainly: receptor blocking ELISA: coated human PD-L1-Fc, blocked ligand biotin-labeled human PD-1-Fc (Bio-PD1), OD 450nm; upper right panel. The protocol: (§3) Briefly, microtiter plates were coated with human PD-L1-Fc protein at 0.5 μg/ml in PBS, 100 μl/well at 4° C. overnight, then blocked with 150 μl/well of 1% BSA at 37° C. for 2 hours. […] The plates were washed with PBS/Tween and then incubated with Streptavidin-HRP for 10 mins at 37° C. After washing, the plates were developed with TMB substrate and analyzed by spectrophotometer at OD 450 nm.
In general, IC50 refers to the concentration needed to halve the response being measured. B3 registered an IC50 of 0.114 µg/mL.

The molecule B8 registered an IC50 of 0.158 µg/mL. The IC50 values of the last two molecules are within 1.5-fold of each other.

In turn, B1 returned an IC50 of 0.0354 µg/mL. Against the preceding molecule, the IC50 is about 4.5-fold lower.

For the next assay, the target named is T2, human PD-L1-Fc protein. The assay can be described thus: ELISA, antibody titrated on coated human PD-L1-Fc, OD 450nm; lower right panel. The procedure:
as §2
As for B10, the midpoint of the response, the EC50, lay at 0.0146 µg/mL.

For the next assay, the target named is T2, human PD-L1-Fc protein. The assay can be described thus: receptor blocking ELISA: coated human PD-L1-Fc, blocked ligand biotin-labeled human CD80-Fc (Bio-CD80), OD 450nm; upper left panel. The procedure: as §3
As for B4, the IC50 is 0.353 µg/mL.

As to B9, the half-maximal inhibitory concentration (IC50) worked out at 0.282 µg/mL. This IC50 and that of the molecule before are within 1.5-fold of each other.

In turn, B2 came in with an IC50 of 0.141 µg/mL.

The target of a further assay is T2, human PD-L1-Fc protein. The assay can be described thus: receptor blocking ELISA: coated human PD-L1-Fc, blocked ligand biotin-labeled human PD-1-Fc (Bio-PD1), OD 450nm; upper left panel. The protocol:
as §3
Turning to B4, it took 0.111 µg/mL to reach half-maximal inhibition (IC50).

As to B9, the IC50 was 0.109 µg/mL.

Molecule B2 yielded an IC50 of 0.0349 µg/mL.

The next assay has as its target T2, human PD-L1-Fc protein. The assay can be described thus: ELISA, antibody titrated on coated human PD-L1-Fc, OD 450nm; upper left panel. The procedure: as §2
The molecule B4 yielded a concentration giving a half-maximal response (EC50) of 0.00683 µg/mL.

Molecule B8 came in with an EC50 of 0.0232 µg/mL.

Regarding B9, the 50% effective concentration (EC50) turned out to be 0.0132 µg/mL.

Regarding B2, the concentration giving a half-maximal response (EC50) is 0.00963 µg/mL. This EC50 and that of the molecule before are within 1.5-fold of each other.

The next assay addresses T3, human PD-L1-his tag protein. Put plainly: SPR (Biacore), affinity ranking, PDL1-His.
B3 returned a dissociation constant Kd of 108 pM, an off-rate (koff) of 6.61e-05 s⁻¹ and an on-rate (kon) of 615000 M⁻¹ s⁻¹.

Molecule B4 displayed a Kd of 95.4 pM, a koff of 5.94e-05 s⁻¹ and a kon of 623000 M⁻¹ s⁻¹.

In the case of B8, the Kd came out at 34.7 pM, the koff was 9.72e-05 s⁻¹ and the on-rate (kon) was 2.8e+06 M⁻¹ s⁻¹.

As for B10, the equilibrium dissociation constant (Kd) came out at 34.7 pM, the koff was 9.36e-05 s⁻¹ and the kon was found to be 2.7e+06 M⁻¹ s⁻¹.

In turn, B9 showed a Kd of 37.9 pM, an off-rate constant (koff) of 9.75e-05 s⁻¹ and a kon of 2.57e+06 M⁻¹ s⁻¹.

The next assay deals with T2, human PD-L1-Fc protein. The assay can be described thus: receptor blocking ELISA: coated human PD-L1-Fc, blocked ligand biotin-labeled human CD80-Fc (Bio-CD80), OD 450nm; upper right panel. The procedure:
as §3
On to B3, for which it took 0.285 µg/mL to reach half-maximal inhibition (IC50).

For the molecule B8, half-maximal inhibition (IC50) was put at 0.495 µg/mL.

Take B1: half-maximal inhibition (IC50) was put at 0.165 µg/mL.
